Patent US12491259B2, “Anti-variable MUC1* antibodies and uses thereof” (Minerva Biotechnologies Corporation, priority 2022, dated 2025)

Test system: high antigen (MUC1*) expressing cancer cells
Test: PrestoBlue plate reader killing assays over multiple cancer sub-types (FIGS. 38A-45D)
Format: cell-based
Details: breast (T47D-MUC1*) and pancreatic (HPAF II-MUC1*) cancer cells
Description: Therefore, although seldom done, it is critically important to test anti-cancer therapeutics against both the low antigen expressing early cancer cells and the later cancer cells that express high levels of the targeted antigen. In FIGS. 38A-45D, the ability of MNC2-ADCs and MN20A10-ADCs to kill multiple cancer sub-types was tested, where the tumors were either low-medium antigen expressing cancer cells or high antigen expressing cancer cells. […] The low expressing cancer cells were killed by treatment with either MNC2-ADC or MN20A10-ADC in the high nanomolar range of ADC, which is considered druggable. The cancer cells that expressed high levels of MUC1* were killed with IC50s in the single digit nanomolar range. […]
Another method of measuring the killing activity of mAb MNC2-ADCs and mAb MN20A10-ADCs against target cancer cells including T47D breast cancer cells NCI-H1975 non-small cell lung cancer cells and HPAFII pancreatic cancer cells is to use the PrestoBlue live/dead cell assay (ThermoFisher). […] After 72 hour-120 hour incubation in a 37° C./5% CO2 incubator, cell viability was measure by fluorescence using the PrestoBlue HS assay (ThermoFisher). […] Fluorescence (Ex 560 nm/Em 590 nm) was recorded after 30-90 min. incubation using a Tecan plate reader. Percentage viability was determined by PrestoBlue HS staining and normalized to 1 μM taxol treated cells. […]

B1: MNC2-MMAF (conjugate)
VH: EVQLVESGGGLVKPGGSLRLSCAASGFTFSGYAMSWVRQAPGKGLEWVSTISSGGTYIYYPDSVKGRFTISRDNAKNSLYLQMNSLRAEDTAVYYCARLGGDNYYEYFDVWGKGTTVTVSS
VL: DIVLTQSPASLAVSPGQRATITCRASKSVSTSGYSYMHWYQQKPGQPPKLLIYLASNLESGVPARFSGSGSGTDFTLTINPVEANDTANYYCQHSRELPFTFGGGTKVEIKRT
concentrations at which cells engineered to express more MUC1* were killed: very low nanomolar concentrations

B2: MN20A10-MMAF (conjugate)
VH: QVQLVESGGGLVKPGGSLRLSCAASGFTFSTYAMSWIRQAPGKGLEWVASIGRAGSTYYSDSVKGRFTISRDNAKNSLYLQMNSLRAEDTAVYYCARGPIYNDYDEFAYWGQGTLVTVSS
VL: EIVLTQSPATLSLSPGERATLSCKSSQSVLYSSNQKNYLAWYQQKPGQAPRLLIYWASTRESGIPARFSGSGSGTDFTLTISSLEPEDFAVYYCHQYLSSLTFGGGTKVEIKR
concentrations at which cells engineered to express more MUC1* were killed: very low nanomolar concentrations
